From patent US20060281130A1 (ENKAM PHARMACEUTICALS A S, published 2006) come the findings set out here.

The target in assay [1] is FGFR on embryonic rat hippocampal neurons (rat). Put plainly: cell-based or functional assay.
Assay [2] has as its target T1, combined FGFR1 Ig modules 2, 3 (mouse, UniProt P16092 141-365).
T1 construct: Expressed in Drosophila S2 cells; immobilized on CM5 chip by amine coupling in the SPR experiments; also called FGFR Ig modules 2, 3; FGFR modules 2, 3
T1 sequence: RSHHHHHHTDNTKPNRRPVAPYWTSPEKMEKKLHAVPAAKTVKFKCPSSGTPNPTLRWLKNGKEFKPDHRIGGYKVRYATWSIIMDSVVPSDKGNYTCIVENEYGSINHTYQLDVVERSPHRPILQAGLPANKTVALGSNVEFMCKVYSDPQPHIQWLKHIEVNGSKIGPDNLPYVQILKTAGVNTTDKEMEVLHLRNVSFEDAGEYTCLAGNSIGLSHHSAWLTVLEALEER
Put plainly: SPR, apparent Kd, FGFR Ig modules 2, 3 immobilized.

Assay [3] concerns the target T1, combined FGFR1 Ig modules 2, 3. The assay can be described thus: SPR, FGFR Ig modules 2, 3 immobilized. In general terms: SPR reads the build-up and loss of mass on a sensor chip optically.
The target is the same in assay [4]. Put plainly: SPR (BIAcoreX), FGFR Ig modules 2, 3 immobilized on CM5.

No end group written: not given here.

As usually defined, the koff is the rate constant with which the complex falls apart. In general, kon refers to the rate constant with which the complex forms.

B1: FG loop peptide in which Y74, K83 and K85 were substituted with alanine (peptide)
peptide: EVAVVAENQQGASAA
Consider B1, for which the “neurite outgrowth from hippocampal neurons, stimulatory effect relative to the non-mutated peptide” value in assay [1] was roughly 60%.

B2: dendrimeric FG loop peptide (SEQ ID NO: 1) (peptide)
peptide: EVYVVAENQQGKSKA
modifications: also: tetrameric dendrimer: four peptides joined through their C-termini to a three-lysine backbone
notes: Tetrameric dendrimer on a three-lysine backbone; also called dendrimeric version of the FG loop peptide
Regarding B2, the Kd in assay [2] is 2.58 µM. In assay [3], the koff stood at 0.00397 s⁻¹ and the kon is 2070 M⁻¹ s⁻¹.

B3: truncated FG loop peptide, heptamer Ala77-K83 (peptide)
peptide: AENQQGK
Take B3: the “neurite outgrowth from hippocampal neurons, stimulatory effect relative to the entire FG loop peptide” value in assay [1] is roughly 50%.

B4: truncated FG loop peptide, nonamer V78-S84 (as printed) (peptide)
peptide: VAENQQGKS
Regarding B4, the “neurite outgrowth from hippocampal neurons, stimulatory effect relative to the entire FG loop peptide” value in assay [1] was roughly 50%.

B5: combined NCAM F3 modules 1, 2 (other, rat)
chain: AGHHHHHHQADTPSSPSIDRVEPYSSTAQVQFDEPEATGGVPILKYKAEWKSLGEEAWHSKWYDAKEANMEGIVTIMGLKPETRYAVRLAALNGKGLGEISAATEFKTQPVREPSAPKLEGQMGEDGNSIKVNLIKQDDGGSPIRHYLVKYRALASEWKPEIRLPSGSDHVMLKSLDWNAEYEVYVVAENQQGKSKAAHFVFRTSAQ
notes: range 507-705; Recombinant, expressed in P. pastoris KM71; also called double module protein
On to B5, for which, in assay [4], the Kd was found to be 9.97 µM, the koff is 0.00556 s⁻¹ and the kon worked out at 889 M⁻¹ s⁻¹.
